Patent publication US8697386B2, “Methods and compositions for modulating hepsin activation of macrophage-stimulating protein” (Genentech, Inc., priority 2009, dated 2014)

Columns and labels:
peritoneal macrophages = assay: Peritoneal macrophage chemotaxis assay; format: cell-based, mouse; settings: pre-treatment with inhibitor
Description: Peritoneal macrophage chemotaxis and morphology change assay: Murine peritoneal resident macrophages were obtained from C57BL/6 mice by washing the peritoneal cavity with 15 ml per mouse of serum-free RPMI-1640 medium. Cells were washed and resuspended in RPMI-1640 medium containing 25 mM Hepes at a concentration of 1×10^6 cells·mL^−1. The macrophage chemotaxis assay was performed using a QCM chemotaxis assay kit with a pore size of 5 μm (Millipore). One hundred microliters of the peritoneal macrophage suspension (i.e. 10^5 cells) were added to the upper wells of the Chemotaxis cells. The bottom wells were filled with RPMI-1640 medium containing purified pro-MSP either alone or hepsin-treated at 37 C for 2 hours. The recombinant active form of human MSP (R&D Systems) was used as a positive control. After incubation at 37 C for 4 hours, the cells on the upper surface of the membrane were wiped off with a cotton swab and the migrated cells were detached using detachment buffer as per manufacturer's recommendations. Aliquots from different wells were incubated with a mixture of lysis buffer and CYPRO dye for 15 minutes. Migration was quantified by measuring the fluorescence using a microplate reader (Spectramax-M5, Molecular devices, Sunnyvale, Calif.) at an excitation wavelength of 480 nm and emission wavelength of 520 nm.

bone marrow macrophages = assay: Inhibition of nitric oxide (NO) synthesis in bone marrow macrophages; format: cell-based, mouse; settings: pro-MSP 10 ng/ml mixed with hepsin 1 nM and Fab25 500 nM, 24 hours, LPS
Description: Inhibition of NO synthesis by mature MSP: Bone marrow cells obtained from collected mouse femurs were pipetted to a single-cell suspension and then spun down. Red blood cells were lysed by incubation with erythrocyte lysis buffer for 5 minutes at room temperature. Cells were then suspended in macrophage differentiation medium (DMEM with glutamine containing 10% FBS, Pen/Strep and 50 ng/ml recombinant mCSF-1). Cells were then plated onto sterile 24-well non-tissue culture dishes. Medium was changed the next day and subsequently every 2 days. After 6 days in culture, the macrophages were mature and these mature cells were washed in serum-free DMEM and further incubated for 2 hours. Different reactions (total volume 300 μL) as indicated in the figure consisting of recombinant MSP (10 ng/ml), pro-MSP (10 ng/ml), hepsin (1 nM) and Fab25 (500 nM) were added to the respective wells and cultured for 24 hours at 37° C. in a tissue culture incubator. NO production was quantified using Griess reaction (Molecular Probes) according to manufacturer's recommendation.

[1] = target: T1, cell surface expressed hepsin in LnCap-34 cells (Homo sapiens, UniProt P05981); assay: Pro-MSP activation by cell surface expressed hepsin in LnCap-34 cells; format: cell-based; settings: 1 μM inhibitor, 15 minutes preincubation, 125I-pro-MSP 25 μg/ml, 3 hours, 37° C.
T1 construct: expressed in transfected cells; host or cells: LnCaP-34 cells
Description: Confluent LnCap-34 cells cultured in 24-well plates were washed with serum-free RPMI-1640 medium and were incubated either alone or with different anti-hepsin inhibitors (1 μM of anti-hepsin antibody Fab25/1 μM of KD1/1 μM of Ac-KQLR-cmk (‘KLQR” disclosed as SEQ ID NO:10)) in serum-free RPMI-1640 medium for 15 minutes at 37° C. prior to addition of 125I-labeled pro-MSP (25 μg/ml). After incubation for 3 hours at 37° C., aliquots were removed and analyzed by SDS-PAGE (4-20% gradient gel) (Invitrogen, Carlsbad, Calif.) followed by exposure to X-ray films.

T1 sequence (P05981 whole entry): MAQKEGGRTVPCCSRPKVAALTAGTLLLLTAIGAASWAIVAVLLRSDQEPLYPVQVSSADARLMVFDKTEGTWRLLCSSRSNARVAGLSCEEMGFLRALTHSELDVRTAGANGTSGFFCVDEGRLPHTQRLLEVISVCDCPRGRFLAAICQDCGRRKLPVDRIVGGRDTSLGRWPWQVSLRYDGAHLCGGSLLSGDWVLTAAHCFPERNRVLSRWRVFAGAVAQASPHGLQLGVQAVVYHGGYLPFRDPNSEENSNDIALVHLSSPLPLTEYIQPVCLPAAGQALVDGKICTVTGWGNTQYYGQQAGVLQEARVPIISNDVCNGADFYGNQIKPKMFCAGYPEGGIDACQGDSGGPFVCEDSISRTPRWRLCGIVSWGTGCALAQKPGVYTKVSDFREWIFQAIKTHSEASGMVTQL

B1: Fab25: anti-hepsin antibody Fab that blocks hepsin activation of pro-MSP (antibody, V domains shown)
VH: EVQLVESGGGLVQPGGSLRLSCAASGFNFSYSYMHWVRQAPGKGLEWVASIYSYYGSTYYADSVKGRFTISADTSKNTAYLQMNSLRAEDTAVYYCARSDSWSYKSGYTQKIYSKGLDYWGQGTLVTVSS
VL: DIQMTQSPSSLSASVGDRVTITCRASQSVSSAVAWYQQKPGKAPKLLIYSASSKGVPSRFSGSRSGTDFTLTISSLQPEDFATYYCQQYYSSYYLLTFGQGTKVEIK
effect of anti-hepsin inhibitor pre-treatment on migration of macrophages induced by hepsin-treated pro-MSP (peritoneal macrophages): marked reduction | effect of anti-hepsin antibody on attenuation of NO production by hepsin-activated MSP (bone marrow macrophages): did not inhibit robust production of nitric oxide | effect of anti-hepsin antibody on attenuation of NO production by hepsin-activated MSP (bone marrow macrophages; listed as anti-hepsin antibody): completely inhibited | blocking of pro-MSP proteolytic cleavage by cell surface hepsin [1]: effectively blocked
